The target in test [1] is 人PD-L1重组蛋白 (human) (UniProt Q9NZQ7). The test is described as follows: Biacore SPR, AHC capture of antibody, PD-L1 as analyte 0.78125-12.5 nM. In general terms: In SPR one partner is held on a chip, and binding of the other changes the refractive index at the surface.
Test [2] deals with MAB-BA-231细胞表面人PD-L1 (human) (UniProt Q9NZQ7). The experiment in a line: FACS on cells carrying human PD-L1.
The target of test [3] is His标签人PD-L1抗原 (human) (UniProt Q9NZQ7). The experiment in a line: ELISA, His-tagged human PD-L1 coated at 2.0 μg/mL; ratio = EC50 of chimeric antibody C1 (chC1) / EC50 of humanised antibody x 100%.
Test [4] has as its target 生物素化的PD-L1抗原 (UniProt Q9NZQ7). The experiment in a line: competition ELISA, biotinylated PD-L1 on streptavidin, competitor PD-1 mFc 2.0 μg/mL; ratio = IC50 of chimeric antibody / IC50 of humanised antibody x 100%. (In general: ELISA stands for enzyme-linked immunosorbent assay.)
Test [5] deals with T1, MAB-BA-231细胞表面人PD-L1 (human, UniProt Q9NZQ7 19-290).
T1 construct: whole, on cells; also called 人PD-L1高表达细胞株(MBA-MA-231)
The test is described as follows: FACS on MAB-BA-231 cells carrying human PD-L1.

Test [6] deals with T2, 人PD-L1重组蛋白 (human, UniProt Q9NZQ7 19-238).
T2 construct: also called 重组人PD-L1; 液相中游离PD-L1
The experiment in a line: ELISA, inhibition of recombinant human PD-L1 binding to PD-1.

For test [7], the target named is T3, ICOS重组蛋白 (UniProt Q9Y6W8 21-140, limits assumed).
T3 sequence (looked up): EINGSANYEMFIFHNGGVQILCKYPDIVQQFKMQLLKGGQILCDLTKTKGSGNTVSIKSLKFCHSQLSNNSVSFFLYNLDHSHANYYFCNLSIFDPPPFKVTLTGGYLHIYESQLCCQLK
The test is described as follows: ELISA on recombinant proteins.

Test [8] concerns the target T4, B7H4重组蛋白 (UniProt Q7Z7D3 29-258, limits assumed).
T4 sequence (looked up): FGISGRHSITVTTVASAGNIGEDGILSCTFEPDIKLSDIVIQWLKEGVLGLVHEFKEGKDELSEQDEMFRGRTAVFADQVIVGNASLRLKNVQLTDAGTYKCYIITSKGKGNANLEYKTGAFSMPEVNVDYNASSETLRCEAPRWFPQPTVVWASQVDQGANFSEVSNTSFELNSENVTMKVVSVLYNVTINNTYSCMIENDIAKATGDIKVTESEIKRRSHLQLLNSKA
The experiment in a line: ELISA on recombinant proteins.

In test [9] the target is T5, CTLA4重组蛋白 (UniProt P16410 36-161, limits assumed).
T5 sequence (looked up): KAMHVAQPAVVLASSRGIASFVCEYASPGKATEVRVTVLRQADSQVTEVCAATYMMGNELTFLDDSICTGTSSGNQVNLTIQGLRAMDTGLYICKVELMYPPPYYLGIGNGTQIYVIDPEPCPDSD
The test is described as follows: ELISA on recombinant proteins.

Test [10] has as its target T6, B7H3重组蛋白 (UniProt Q5ZPR3 29-461, limits assumed).
T6 sequence (looked up): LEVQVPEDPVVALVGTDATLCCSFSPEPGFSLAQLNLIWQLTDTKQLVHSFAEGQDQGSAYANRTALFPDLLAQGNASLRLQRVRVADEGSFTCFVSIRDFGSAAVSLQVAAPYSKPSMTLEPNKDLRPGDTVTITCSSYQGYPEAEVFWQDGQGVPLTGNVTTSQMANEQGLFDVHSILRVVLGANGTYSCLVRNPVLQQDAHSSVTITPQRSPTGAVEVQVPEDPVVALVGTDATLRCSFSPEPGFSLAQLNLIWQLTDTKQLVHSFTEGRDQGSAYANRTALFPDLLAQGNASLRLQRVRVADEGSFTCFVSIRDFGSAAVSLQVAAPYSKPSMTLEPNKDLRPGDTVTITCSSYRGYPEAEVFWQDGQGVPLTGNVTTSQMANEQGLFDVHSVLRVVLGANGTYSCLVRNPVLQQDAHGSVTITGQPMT
The test is described as follows: ELISA on recombinant proteins.

Test [11] concerns the target T7, PD-1重组蛋白 (UniProt Q15116 25-167, limits assumed).
T7 construct: also called 受体PD-1
The experiment in a line: ELISA on recombinant proteins.

Test [12] concerns the target CD28重组蛋白 (UniProt P10747 19-152, limits assumed). The experiment in a line: ELISA on recombinant proteins.
In test [13] the target is T2, 人PD-L1重组蛋白. The experiment in a line: Biacore SPR, AHC capture of antibody, PD-L1 as analyte 0.78125-12.5 nM.

Data on eight molecules can be found in patent CN115246884A (SHANGHAI JUNSHI BIOSCIENCES CO LTD; JUNMENG BIOSCIENCES CO …, dated 2022).

As a reminder, the Kd is the concentration at which binding is half-saturated. One may read the EC50 as the concentration needed to bring the measured effect to its halfway point. The low end stands for greater potency, the high end for weaker potency. Broadly, the IC50 is the concentration at which inhibition is half-maximal. By koff is commonly meant a measure of how fast the partners let go of each other. In general, kon refers to the rate constant with which the complex forms. A lower kon goes with slower complex formation.

T2 sequence (Q9NZQ7 19-238 limits assumed): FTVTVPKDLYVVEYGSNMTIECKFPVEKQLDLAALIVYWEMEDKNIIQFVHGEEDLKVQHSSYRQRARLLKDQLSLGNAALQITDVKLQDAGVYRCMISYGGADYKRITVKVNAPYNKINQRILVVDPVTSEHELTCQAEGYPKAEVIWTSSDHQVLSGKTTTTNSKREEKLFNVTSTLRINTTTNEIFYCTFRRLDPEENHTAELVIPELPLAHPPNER
Chain of CD28重组蛋白 (P10747 19-152 limits assumed): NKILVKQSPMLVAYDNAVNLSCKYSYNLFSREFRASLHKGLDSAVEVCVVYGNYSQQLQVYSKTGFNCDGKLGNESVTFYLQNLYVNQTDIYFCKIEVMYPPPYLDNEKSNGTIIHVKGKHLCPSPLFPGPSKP
T1 sequence (Q9NZQ7 19-290): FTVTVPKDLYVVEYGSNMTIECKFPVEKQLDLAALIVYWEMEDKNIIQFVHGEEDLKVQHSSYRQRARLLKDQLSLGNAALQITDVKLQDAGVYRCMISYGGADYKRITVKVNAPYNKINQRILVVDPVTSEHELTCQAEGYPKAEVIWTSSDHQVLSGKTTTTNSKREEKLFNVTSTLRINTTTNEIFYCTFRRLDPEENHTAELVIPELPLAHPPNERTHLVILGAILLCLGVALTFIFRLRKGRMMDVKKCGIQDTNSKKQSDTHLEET
T7 sequence (Q15116 25-167 limits assumed): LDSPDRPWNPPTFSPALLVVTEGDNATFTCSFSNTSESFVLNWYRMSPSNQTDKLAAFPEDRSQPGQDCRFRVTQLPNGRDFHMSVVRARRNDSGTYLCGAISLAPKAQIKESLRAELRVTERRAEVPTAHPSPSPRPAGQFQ

In test [1], 对照抗体KN035 (Envafolimab) (Fc fusion) came in with a Ka of 2.47e+09 M⁻¹ and a Kd of 0.405 nM. Further, in test [2], the concentration for a half-maximal effect (EC50) is 8.8 ng/mL.

B1: 人源化抗PD-L1单域抗体C1-hu1 (Fc fusion, not shown: a dimerising Fc or GST)
heavy: EVQLLESGGGLVQPGGSLRLSCAASGAAPCMAWFRQAPGKGLEGVSASVRGGLSPYYADVKGRFTISHDIPKNTMYLQMNSLRAEDTAVYYCAARATFYRCEGDASSYTYWGQGTLVTVSS
Regarding B1, the 相对结合活性，% in test [3] was determined as 45.5%. Moreover, the 相对竞争抑制活性，% in test [4] is 53.4%.

B2: 人源化抗PD-L1单域抗体C1-hu11 (Fc fusion, not shown: a dimerising Fc or GST)
heavy: EVQLVESGGGLVQPGGSLRLSCAASGAAPCMAWFRQAPGKGREGVAASVRGGLSPYYADVKGRFTISHDIPKNTMYLQMNSLRAEDTAVYYCAARATFYRCEGDASSYTYWGQGTLVTVSS
As to B2, the 相对结合活性，% in test [3] worked out at 81.3%. The 相对竞争抑制活性，% in test [4] worked out at 89.1%.

B3: 人源化抗PD-L1单域抗体C1-hu2 (Fc fusion, not shown: a dimerising Fc or GST)
heavy: EVQLLESGGGLVQPGGSLRLSCAASGAAPCMAWFRQAPGKGLEGVSASVRGGLSPYYADVKGRFTISHDIPKNTLYLQMNSLRAEDTAVYYCAARATFYRCEGDASSYTYWGQGTLVTVSS
Turning to B3, the 相对结合活性，% in [3] was 56.5%. Further, in [4], the 相对竞争抑制活性，% was found to be 73.3%.

B4: 人源化抗PD-L1单域抗体C1-hu15 (Fc fusion, not shown: a dimerising Fc or GST)
heavy: EVQLVESGGGLVQPGGSLRLSCAASGAAPCMAWFRQAPGKEREGVAASVRGGLSPYYADVKGRFTISHDNSKNTMYLQMNSLRAEDTAVYYCAARATFYRCEGDASSYTYWGQGTLVTVSS
Turning to B4, the 相对竞争抑制活性，% in test [4] was 68.1%.

B5: 人源化抗PD-L1单域抗体C1-hu16 (Fc fusion, not shown: a dimerising Fc or GST)
heavy: EVQLVESGGGLVQPGGSLRLSCAASGAAPCMAWFRQAPGKEREGVAASVRGGLSPYYADVKGRFTISHDIPKNTMYLQMNSLRAEDTAVYYCAARATFYRCEGDASSYTYWGQGTLVTVSS
For B5, in test [3], the 相对结合活性，% was 76.6%. In test [4], the 相对竞争抑制活性，% was 107%.

B6: 人源化抗PD-L1单域抗体C1-hu5 (Fc fusion, not shown: a dimerising Fc or GST)
heavy: EVQLVESGGGLVQPGGSLRLSCAASGAAPCMAWFRQAPGKGLEGVSASVRGGLSPYYADVKGRFTISHDIPKNTMYLQMNSLRAEDTAVYYCAARATFYRCEGDASSYTYWGQGTLVTVSS
On to B6, for which, in test [3], the 相对结合活性，% worked out at 62.5%. In addition, the 相对竞争抑制活性，% in [4] came to 61.7%.

B7: 单域嵌合抗体(VHH-hFc)chC1 (Fc fusion)
heavy: QVQLQESGGGSVQTGGSLRLSCAASGAAPCMAWFRQAPGKEREGVAASVRGGLSPYYADSVKGRFTISHDIPKNTMYLQMNSLQPDDTALYYCAARATFYRCEGDASSYTYWGQGTQVTVSS
notes: VHH of C1 cloned upstream of the human IgG1 Fc gene and expressed in 293F cells; also called 嵌合抗体chC1; 嵌合抗体C1; not shown: Fc segment of the human IgG1 heavy chain constant region
In test [5], B7 returned a concentration for a half-maximal effect (EC50) of 8.1 ng/mL. For the same molecule, in [6], the IC50 was determined as 590 ng/mL. Besides, the binding result in test [7], in test [8], in [9], in test [10], in test [11] and in [12] was “no binding” throughout. Further, the Ka in test [13] came out at 3.16e+09 M⁻¹. In [13], this molecule registered a Kd of 0.317 nM. The molecule further had a dissociation rate constant (koff) in [13] of 0.000462 s⁻¹. For the same molecule, the kon in test [13] turned out to be 1.46e+06 M⁻¹ s⁻¹.
